The values below come from patent US5876949, “Antibodies specific for fragile X related proteins and method of using the same” (The Trustees of the University of Pennsylvania, dated 1999).

In this experiment the target is GAL4(1-147)-FMR1, FMR1 fused to the DNA binding domain of the yeast transcription factor GAL4 (plasmid … (yeast; human, UniProt P04386). In words: yeast two-hybrid, HIS3 and LacZ reporters in HF7C.

B1: GAL4 activation domain alone (empty vector pGAD424) (other)
chain: ANFNQSGNIADSSLSFTFTNSSNGPNLITTQTNSQALSQPIASSNVHDNFMNNEITASKIDDGNNSKPLSPGWTDQTAYNAFGITTGMFNTTTMDDVYNYLFDDEDTPPNPKKE
Regarding B1, the binding result is “no binding”.
